From US20040191271A1 (Pfizer, published 2004) come the findings set out here.

This data set deals with the molecule itself. Briefly: size exclusion chromatography (Superdex 200), self-association of identical subunits. A general note: In gel filtration, larger molecules generally elute earlier.

B1: Streptococcus pneumoniae undecaprenyl pyrophosphate synthase (enzyme)
chain: AVEVEVPTQVPAHIGIIMDGNGRWAKKRMQPRVFGHKAGMEALQTVTKAANKLGVKVITVYAFSTENWTRPDQEVKFIMNLPVEFYDNYVPELHANNVKIQMIGETDRLPKQTFEALTKAEELTKNNTGLILNFALNYGGRAEITQALKLISQDVLDAKINPGDITEELIGNYLFTQHLPKDLRDPDLIIRTSGELRLSNFLPWQGAYSELYFTDTLWPDFDEAALQEAILAYNRRHRRFGGV
notes: Homodimer of two identical subunits; Thrombin removed the tag before size exclusion and crystallization; also called UPS; UppS
As to B1, the binding result was “binds”.
